Experimental data: patent US20110190196A1 (University of California, published 2011)
Read-outs that look alike come from different tables or passages of the source.

Experiments:
Experiment in all cases: cell-based or functional assay
[1] = biological target: T1, ATP-binding cassette transporter A1 (ABCA1) (UniProt P41233 1-2261, limits assumed)
[2] = biological target: T1, ATP-binding cassette transporter A1 …; remark: listed apart in the source
[3] = biological target: T1, ATP-binding cassette transporter A1 …; remark: listed apart in the source
[4] = biological target: T1, ATP-binding cassette transporter A1 …; remark: listed apart in the source

T1 sequence (P41233 whole entry): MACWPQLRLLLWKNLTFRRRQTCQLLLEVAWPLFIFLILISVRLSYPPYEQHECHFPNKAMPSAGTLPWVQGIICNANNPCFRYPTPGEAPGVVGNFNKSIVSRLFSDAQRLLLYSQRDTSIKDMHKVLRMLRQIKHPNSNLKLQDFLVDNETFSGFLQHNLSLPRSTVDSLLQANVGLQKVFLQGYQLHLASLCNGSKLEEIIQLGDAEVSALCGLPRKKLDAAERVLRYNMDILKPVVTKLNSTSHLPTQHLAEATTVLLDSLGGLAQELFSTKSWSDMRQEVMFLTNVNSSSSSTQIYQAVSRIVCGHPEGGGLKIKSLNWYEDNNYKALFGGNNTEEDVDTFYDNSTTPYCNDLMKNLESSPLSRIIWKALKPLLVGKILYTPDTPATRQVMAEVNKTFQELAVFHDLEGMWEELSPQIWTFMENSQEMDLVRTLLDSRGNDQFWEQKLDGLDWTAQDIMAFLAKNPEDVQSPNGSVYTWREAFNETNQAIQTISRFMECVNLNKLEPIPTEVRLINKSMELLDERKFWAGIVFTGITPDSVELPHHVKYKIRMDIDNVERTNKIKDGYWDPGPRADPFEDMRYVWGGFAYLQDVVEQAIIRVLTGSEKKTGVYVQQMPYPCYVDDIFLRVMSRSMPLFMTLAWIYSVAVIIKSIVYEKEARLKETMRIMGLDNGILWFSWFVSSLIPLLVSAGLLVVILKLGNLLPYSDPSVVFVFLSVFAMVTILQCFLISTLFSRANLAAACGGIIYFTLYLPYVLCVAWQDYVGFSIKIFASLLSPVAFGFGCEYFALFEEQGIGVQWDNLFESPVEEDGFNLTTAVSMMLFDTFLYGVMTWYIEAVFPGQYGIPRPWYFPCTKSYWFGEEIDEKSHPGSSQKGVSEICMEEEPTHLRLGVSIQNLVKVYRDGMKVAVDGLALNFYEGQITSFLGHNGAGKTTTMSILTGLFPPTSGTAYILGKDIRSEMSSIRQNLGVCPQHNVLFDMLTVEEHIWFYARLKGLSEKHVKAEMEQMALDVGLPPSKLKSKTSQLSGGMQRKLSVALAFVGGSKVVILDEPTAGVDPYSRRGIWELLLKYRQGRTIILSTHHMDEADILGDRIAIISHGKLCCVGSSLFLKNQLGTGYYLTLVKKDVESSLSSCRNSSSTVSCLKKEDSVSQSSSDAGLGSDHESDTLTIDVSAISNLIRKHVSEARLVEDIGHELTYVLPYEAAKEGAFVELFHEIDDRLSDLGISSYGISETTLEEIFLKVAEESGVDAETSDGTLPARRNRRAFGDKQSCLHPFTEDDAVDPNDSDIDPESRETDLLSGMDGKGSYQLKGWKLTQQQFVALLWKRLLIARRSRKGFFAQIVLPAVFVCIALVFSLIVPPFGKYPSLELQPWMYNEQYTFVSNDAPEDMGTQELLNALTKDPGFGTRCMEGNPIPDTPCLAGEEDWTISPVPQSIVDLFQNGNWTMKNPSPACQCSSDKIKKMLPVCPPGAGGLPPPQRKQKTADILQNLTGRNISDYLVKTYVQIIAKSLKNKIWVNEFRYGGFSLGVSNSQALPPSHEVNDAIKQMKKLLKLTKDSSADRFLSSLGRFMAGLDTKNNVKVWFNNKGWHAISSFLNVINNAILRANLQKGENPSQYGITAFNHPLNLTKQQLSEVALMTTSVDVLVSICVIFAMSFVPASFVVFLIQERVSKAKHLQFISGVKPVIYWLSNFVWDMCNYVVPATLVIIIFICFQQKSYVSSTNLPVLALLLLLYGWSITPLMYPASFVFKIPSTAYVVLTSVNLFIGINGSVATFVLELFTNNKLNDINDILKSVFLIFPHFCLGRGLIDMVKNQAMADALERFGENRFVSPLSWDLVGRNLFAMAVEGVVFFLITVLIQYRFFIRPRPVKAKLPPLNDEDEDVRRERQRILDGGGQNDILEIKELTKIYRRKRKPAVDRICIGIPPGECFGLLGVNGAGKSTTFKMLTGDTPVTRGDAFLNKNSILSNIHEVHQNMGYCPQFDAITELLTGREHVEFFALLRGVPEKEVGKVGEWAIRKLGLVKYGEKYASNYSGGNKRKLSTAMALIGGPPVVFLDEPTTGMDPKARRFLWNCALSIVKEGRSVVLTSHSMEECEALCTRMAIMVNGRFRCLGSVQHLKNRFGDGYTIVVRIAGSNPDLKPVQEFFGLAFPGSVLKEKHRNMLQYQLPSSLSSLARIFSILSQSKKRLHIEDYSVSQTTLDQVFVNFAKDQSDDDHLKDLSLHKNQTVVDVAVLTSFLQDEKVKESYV

Binder | % cholesterol efflux/8 hours, No cAMP [1] [%] | % cholesterol efflux/8 hours, Plus cAMP [1] [%] | % cholesterol efflux/4 hours at 0.1 µg/ml [2] [%] | % cholesterol efflux/4 hours at 0.3 µg/ml [2] [%] | % cholesterol efflux/4 hours at 1.0 µg/ml [2] [%] | % cholesterol efflux/4 hours at 3.0 µg/ml [2] [%] | % cholesterol efflux/4 hours at 10 µg/ml [2] [%] | % cholesterol efflux/4 hours at 30 µg/ml [2] [%] | % cholesterol efflux/8 hours, +cAMP [3] [%] | % cholesterol efflux/8 hours, -cAMP [3] [%] | % cholesterol efflux/4 hours at 0.1 µg/ml [4] [%] | % cholesterol efflux/4 hours at 0.3 µg/ml [4] [%] | % cholesterol efflux/4 hours at 1.0 µg/ml [4] [%] | % cholesterol efflux/4 hours at 3.0 µg/ml [4] [%] | % cholesterol efflux/4 hours at 10 µg/ml [4] [%] | % cholesterol efflux/4 hours at 30 µg/ml [4] [%]
ELREKLEAWFEAFEEFFARFKS [N356-1] | 0.86 | 4.16 | 0 | 0 | 0.23 | 4.71 | 5.61 | 3.5 |  |  |  |  |  |  |  | 
ELREKLEAWFELFAEFFARFK [N356-5] | 2.18 | 5.97 | 0.02 | 0.31 | 1.59 | 4.27 | 3.86 | 3.2 |  |  |  |  |  |  |  | 
EVREKLEAWFELFREFAERFKS [N965-2] |  |  |  |  |  |  |  |  | 6.97 | 1.28 | 0 | 0.13 | 0.01 | 2.23 | 5.96 | 3.98
EVREKLEAWFELFREFLERFLS [N965-5] |  |  |  |  |  |  |  |  | 5.52 | 2.91 | 0.12 | 0.9 | 2.13 | 4.89 | 4.06 | 3.82
EVREKLEAWFELFREFAERFLS [N965-3] |  |  |  |  |  |  |  |  | 3.85 | 1.45 | 0.23 | 0.47 | 1.06 | 3.48 | 3.05 | 2.53
ELREKLEAWFELFAEFFARF [N356-6] | 2.09 | 4.04 | 0.01 | 0.23 | 0.67 | 4.07 | 3.78 | 3.91 |  |  |  |  |  |  |  | 
EVREKLEAWFELFREFLERFKS [N965-4] |  |  |  |  |  |  |  |  | 4.76 | 1.52 | 0.29 | 0.67 | 2.7 | 4.72 | 4 | 2.94
ELREKLEAWRELFEEFFARFLS [N965-9] |  |  |  |  |  |  |  |  | 2.94 | 1.06 | 0.03 | 0.41 | 0.72 | 2.45 | 1.77 | 1.41
ELREKLEAWFELFAEFFARFKS [N356-4] | 1.72 | 4.25 | 0.14 | 0.61 | 1.89 | 5.68 | 6.06 | 6.52 |  |  |  |  |  |  |  | 
EVREKLEAWFEAFREFAERFKS [N965-1] |  |  |  |  |  |  |  |  | 9.9 | 1.75 | 0 | 0.13 | 0 | 0.44 | 2.9 | 6.01
ELRAKLEAWFEAFAEFFARF [N356-7] | 2.78 | 7 | 0.15 | 0.23 | 1.17 | 4.99 | 5.49 | 5.66 |  |  |  |  |  |  |  | 
EVREKLEAWFELFREFLERFL [N965-6] |  |  |  |  |  |  |  |  | 6.18 | 3.15 | 0.11 | 0.49 | 1.59 | 1.98 | 2.22 | 2.75
EVREKLEAWFELFREFLERF [N965-7] |  |  |  |  |  |  |  |  | 4.03 | 1.5 | 0.03 | 0.3 | 1.39 | 4.94 | 3.65 | 2.66
